Results reported in article PMC3493480.

Experiments:
[1] = molecular target: bromodomain protein 4 (Brd4), endogenous (human (endogenous in C33A and 293T)) (UniProt O60885)
[2] = molecular target: bromodomain protein 4 (Brd4), endogenous (human (endogenous in C33A and 293T)) (UniProt O60885); remark: listed apart in the source
[3] = molecular target: bromodomain protein 4 (Brd4), endogenous (human (endogenous in C33A and 293T)) (UniProt O60885); assay: co-IP; nuclear extracts of transfected C33A or 293T cells IPed with polyclonal Brd4 antibody (NA or CA) or normal rabbit IgG, immunoblot; immuno-complexes unchanged at 300 mM NaCl, only slightly dissociated at 500 and 1000 mM

MCV large T antigen (LT) expressed from pADL* (natural protein)
replication of the MCV genome (LT expressed from the viral genome) in 293T cells co-transfected with 0, 7 or 9 µg pcDNA4C-Brd4 471-730, DpnI-resistant DNA by Southern blotting at 24 h: inhibition [1]: 92%
MCV episome copy number by qPCR in 293-4T cells (stably expressing MCV LT and sT) super-transfected with the Brd4 471-730 DNI construct, 24 h to 4 days: reduction (∼60% within the first 24 h) [2]: 94%
percent of the MCV LT co-immunoprecipitated [3]: 20%

MCV large T antigen (LT), Xpress-tagged, from pcDNA4C-MCV LT (natural protein)
percent of the MCV LT co-immunoprecipitated [3]: 40%
